Reference: paper PMC4431850 (PLoS ONE, 2015)

Key:
[1] = molecular target: the molecule itself; test: SEC-MALS; light scattering experiments, data not shown; oligomeric state
[2] = molecular target: the molecule itself; test: SEC-MALS; Superdex200 10/30 coupled to light scattering (miniDAWN TREOS) and refractive index detectors; 20 mM sodium phosphate pH 7.5, 2 mM DTT; oligomeric state
[3] = molecular target: T1, Cul3^NTD, N-terminal region (residues 20-381) of cullin 3 (UniProt Q13618 20-381); test: SEC; BTB domain mixed with Cul3^NTD at 4°C in 20 mM NaP, 200 mM NaCl, 2 mM DTT pH 7.5; Superdex 200 10/30; SDS-PAGE of the peaks; settings: both partners purified
T1 construct: cullin 3, N-terminal region, residues 20-381; Printed Mw 42 kDa; source: expressed and purified according to Balasco et al. [19]; recombinant, bacterial system

[4] = molecular target: T1, Cul3^NTD, N-terminal region (residues …); test: ITC; BTB domain (55 μM as tetramer) titrated into Cul3^NTD (25 μM); 22°C; 20 mM NaP, 200 mM NaCl, 2 mM DTT pH 7.5; single-binding site model; settings: both partners purified

T1 sequence (Q13618 20-381): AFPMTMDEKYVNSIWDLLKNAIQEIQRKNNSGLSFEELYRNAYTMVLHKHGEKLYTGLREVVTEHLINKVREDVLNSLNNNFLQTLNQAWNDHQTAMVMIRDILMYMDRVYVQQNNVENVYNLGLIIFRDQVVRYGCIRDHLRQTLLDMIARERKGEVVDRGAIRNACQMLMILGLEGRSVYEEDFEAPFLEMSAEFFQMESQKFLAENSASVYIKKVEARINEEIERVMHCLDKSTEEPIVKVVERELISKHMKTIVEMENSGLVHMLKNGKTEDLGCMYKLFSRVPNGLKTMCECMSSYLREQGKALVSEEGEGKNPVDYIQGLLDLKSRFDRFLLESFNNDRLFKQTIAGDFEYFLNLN

Binder	stoichiometry N [1]	stoichiometry N [2]	further results
BTB domain of KCTD6 (KCTD6^BTB) (domain or fragment, UniProt Q8NC69 10-110, looked up, KCTD6, BTB domain, residues 10-110 of UniProt Q8NC69; Tetramer (~46 kDa); source: E. coli BL21(DE3), purified (protocol of Pirone et al. [23])) MTDPVTLNVGGHLYTTSLTTLTRYPDSMLGAMFGGDFPTARDPQGNYFIDRDGPLFRYVLNFLRTSELTLPLDFKEFDLLRKEADFYQIEPLIQCLNDPKP	4		
chimeric BTB domain CHIM11/12^BTB (KCTD11^BTB with residues 42-63 replaced by residues 61-80 of KCTD12^BTB) (domain or fragment, UniProt Q693B1-2 15-41, looked up, KCTD11 BTB domain (15-116 of the long form, isoform 2) up to the replaced α2β3 loop (42-63); numbers count on: the long form (isoform 2); KCTD12, residues 61-80, predicted α2β3 loop; KCTD11 BTB domain (15-116 of the long form, isoform 2) after the replaced α2β3 loop (42-63); also called chimeric variant of KCTD11; source: E. coli, purified (procedure used for KCTD11 [5])) GPVTLNVGGTLYSTTLETLTRFPDSMLWRMFTQQQPQELARDSKGRFFIDRDGKAFRHILNFLRLGRLDLPRGYGETALLRAEADFYQIRPLLDALRELE		4	
BTB domain of KCTD15 (KCTD15^BTB) (domain or fragment, human, UniProt Q96SI1-1 61-157, looked up, KCTD15, human, BTB domain, residues 61-157 of UniProt Q96SI1-1; cloned NdeI/EcoRI into pET28b+; Tetramer by light scattering (47.1 kDa against 47.5 kDa expected); source: E. coli BL21(DE3) pLys-S co-transformed with pREP4 GroESL, purified (Ni-NTA, Superdex200)) DVGGHMYTSSLATLTKYPDSRISRLFNGTEPIVLDSLKQHYFIDRDGEIFRYVLSFLRTSKLLLPDDFKDFSLLYEEARYYQLQPMVRELERWQQEQ		4	
BTB domain of KCTD12 (KCTD12^BTB) (domain or fragment, UniProt Q96CX2 27-131, looked up, KCTD12, BTB domain, residues 27-131 of UniProt Q96CX2; Tetramer (~46 kDa); source: E. coli BL21(DE3), purified (procedure of Correale et al. [24] and Errington et al. [25])) AEPPLFPDIVELNVGGQVYVTRRCTVVSVPDSLLWRMFTQQQPQELARDSKGRFFLDRDGFLFRYILDYLRDLQLVLPDYFPERSRLQREAEYFELPELVRRLGA	4		
BTB domain of KCTD11 (KCTD11^BTB) (domain or fragment, UniProt Q693B1-2 15-116, looked up, KCTD11, BTB domain, residues 15-116 of the long form of the protein (isoform 2, UniProt Q693B1-2); numbers count on: the long form (isoform 2); Tetramer (~46 kDa); source: E. coli BL21(DE3), purified (procedure of Correale et al. [5])) GPVTLNVGGTLYSTTLETLTRFPDSMLGAMFRAGTPMPPNLNSQGGGHYFIDRDGKAFRHILNFLRLGRLDLPRGYGETALLRAEADFYQIRPLLDALRELE	4		stoichiometry N [3]: 1 BTB chains : Cul3^NTD (4:4); Kd [4]: 25 ± 2 nM; dH [4]: -21 ± 0.1 kcal/mol; stoichiometry N [4]: ~0.25 KCTD tetramers per Cul3^NTD
